Data set [1] concerns the target T1, NCYM (Homo sapiens, UniProt P40205 1-109).
T1 sequence: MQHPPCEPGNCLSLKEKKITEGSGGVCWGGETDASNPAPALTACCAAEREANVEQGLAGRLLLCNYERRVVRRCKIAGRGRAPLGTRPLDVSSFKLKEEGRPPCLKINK
As to the kind of experiment: BLI; BLI: 25 C, NCYM 25-400 nM, buffer not stated (selection buffer: 40 mM HEPES pH 7.5, 125 mM NaCl, 5 mM KCl, 1 mM MgCl2, 0.01% Tween 20); AFM: 20 mM Tris-HCl pH 7.4, 10 mM MgCl2, 1 mM EDTA, 25 C, 2 h, NCYM 100 nM, aptamer frame 10 nM; SAXS: 293 K. The settings on record: protein: recombinant, tags: N-terminal GST tag cleaved, 8 vector residues left (117 aa; stated for SAXS), label: 5'-biotin (BLI).

For data set [2], the target named is T1, NCYM. As to the kind of experiment: BLI; text gives 299 nM as top of range; BLI: 25 C, NCYM 25-400 nM, buffer not stated (selection buffer: 40 mM HEPES pH 7.5, 125 mM NaCl, 5 mM KCl, 1 mM MgCl2, 0.01% Tween 20); AFM: 20 mM Tris-HCl pH 7.4, 10 mM MgCl2, 1 mM EDTA, 25 C, 2 h, NCYM 100 nM, aptamer frame 10 nM; SAXS: 293 K. Particulars: protein: recombinant; tags: N-terminal GST tag cleaved, 8 vector residues left (117 aa; stated for SAXS); label: 5'-biotin (BLI).

The term Kd denotes the equilibrium constant for the complex coming apart.

B1: aptamer No. 3 (ssDNA)
DNA: GGAATGTGGTCCCTCGCAATAAATCGGGCGTTGTGGAGGGGGCGGTGGGTGGGGGGAAATGAGCCCTTTGACCCTGTAC
As for B1, the dissociation constant (Kd) in data set [1] was 0.0539 ± 0.00106 µM.

B2: aptamer No. 2 (ssDNA)
DNA: GGAATGTGGTCCCTCGCAATAAATCGGGGAGGGAGGGTGGGGGCGGTGGGAGGTGGAAATGAGCCCTTTGACCCTGTAC
As for B2, the Kd in data set [2] was 0.298 ± 0.0887 µM.

B3: aptamer No. 1 (ssDNA)
DNA: GGAATGTGGTCCCTCGCAATAAATCTATGTACGTTATTCCCCTTTGACCAATGCTGAAATGAGCCCTTTGACCCTGTAC
B3: in data set [1] (stem-loops predicted by RNAfold, dimer in solution (SAXS)), the Kd is 0.176 ± 0.0291 µM.
